B1: recombinant Psb27 (natural protein, T. elongatus, UniProt Q8DG60 22-134, looked up)
chain: CANVPTGLTGNFREDTLALISSLREAIALPENDPNKKAAQAEARKKLNDFFALYRRDDSLRSLSSFMTMQTALNSLAGHYSSYPNRPLPEKLKARLEQEFKQVELALDREAKS
notes: by the printed primers the natural stretch begins ANVPT and ends REAKS; No lipid modification, as the N-terminal cysteine is missing; the His tag is inferred; source: E. coli Overexpress C43, purified (IMAC, ResourceS ion exchange)

How the values were obtained:
Details in all cases: both partners purified
recombinant Psb27 = target: B1; test: SPR; Biacore 3000, CM5 chip; Im7 fusion proteins captured on covalently bound DNase E7; Psb27 injected from 50 μM to 100 nM for 60 s in MBS-EP (20 mM MES, 150 mM NaCl, 3 mM EDTA, 0.05% Surfactant P20, pH 6.5), 30 μl/min, 298 K; steady-state responses fitted to a one-site binding isotherm
[1] = target: T1, Im7-tagged lumenal domain of CP47 (residues 271-446) (UniProt Q8DIQ1 271-446); test: as above
T1 construct: CP47 (PsbB) of photosystem II, lumenal domain, residues 271-446; also called CP47 domain; source: cell-free expression (RTS100 system), purified on the chip

[2] = target: T2, CP43 in the monomeric Psb27-PSII intermediate complex (T. elongatus (endogenous), UniProt Q8DIF8 1-461); test: cross-linking; isolated monomeric Psb27-PSII complex without PsbO, PsbU and PsbV (2.4 μM) with a 1:1 mixture of BS3-H12/D12 (5 mM), 30 min on ice, 20 mM MES/NaOH, 10 mM CaCl2, 0.03% dodecyl-β-D-maltoside, pH 6.5; trypsin, LC-ESI-MS/MS, StavroX; found in light and heavy form
T2 construct: CP43 (PsbC) of photosystem II of T. elongatus; source: endogenous, Psb27-PSII complex isolated from wild-type T. elongatus

T1 sequence (Q8DIQ1 271-446): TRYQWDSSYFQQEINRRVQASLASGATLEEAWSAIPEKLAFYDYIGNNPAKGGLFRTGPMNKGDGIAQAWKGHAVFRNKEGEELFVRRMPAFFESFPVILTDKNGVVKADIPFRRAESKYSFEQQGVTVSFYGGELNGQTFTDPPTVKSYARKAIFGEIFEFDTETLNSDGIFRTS

Kd (recombinant Psb27) [µM] | Binder | also measured
~100 | Im7-tagged C-terminal lumenal domain of D2 (residues 294-352) (domain or fragment, D2 (PsbD) of photosystem II, C-terminus, residues 294-352; source: cell-free expression (RTS100 system), purified on the chip) not shown | –
– | B1 | Kd [1]: ~100 µM
– | Psb27 in the monomeric Psb27-PSII intermediate complex (natural protein, T. elongatus (endogenous), UniProt Q8DG60 22-134, looked up, N-terminal lipid modification, Psb27 of T. elongatus (tll2462), as it stands in the isolated Psb27-PSII complex; source: endogenous, Psb27-PSII complex isolated from wild-type T. elongatus) CANVPTGLTGNFREDTLALISSLREAIALPENDPNKKAAQAEARKKLNDFFALYRRDDSLRSLSSFMTMQTALNSLAGHYSSYPNRPLPEKLKARLEQEFKQVELALDREAKS | binding result [2]: binds
21 | Im7-tagged lumenal domain of CP43 (residues 293-424) (domain or fragment, Im7 fusion carrier omitted. Printed 293-424 taken as PDB 3ARC numbering, which is UniProt +12: printed K381, K339 and D383 then correspond to entry K369, K327 and D371, and the range spans the …) not shown | –
34 | Im7-tagged mature D1 C-terminus (mD1, residues 295-344) (domain or fragment, D1 (PsbA) of photosystem II, mature C-terminus, residues 295-344; source: cell-free expression (RTS100 system), purified on the chip) not shown | –

— paper PMC4758025, “Critical Assessment of Protein Cross-Linking and Molecular Docking: An Updated Model for the Interaction Between Photosystem II and Psb27” (Frontiers in Plant Science, 2016)
